# According to the nanobody polyreactivity screen of Harvey et al. (2022):
# Test: yeast display, Sf9 membrane polyspecificity reagent, FACS + sequencing; frameworks hold sequencing errors
# Summary of the method: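 Nanobodies came from a synthetic yeast display library in Saccharomyces cerevisiae BJ5465, induced with galactose for 36–48 hours and stained for 1 hour at 4 °C with 10% biotinylated, detergent-solubilized Sf9 membrane reagent. Cells were enriched on streptavidin microbeads and then FACS-sorted, with low and high (top ~1%) gates set on anti-HA fluorescence for expression and streptavidin fluorescence for reagent binding. Each polyreactivity label reflects the gate a clone came from. Genes were amplified by colony PCR, sequenced by MiSeq 2 × 250 and filtered by CDR length.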
row,Sequence,polyreactivity (PSR sort gate)
1,QVQLVESGGGLVQAGGSLRLSCAASGSIFGAYVMGWYRQAPGKERELVAAISRSGASTYYADSVKGRFTISRDNAKNTVYLQMNSLKPEDTAVYYCAARDRQRVSYCYWGQGTQVTVSS,high polyreactivity
2,QGQLVESWGGLVQAGGSLRLSCAASGRIFYGYVMGWYREAPGKERELVAAINHSGTSTYYADSVKGRFTISRDIAKNTVYLQMNIMKPEDTAVYYCAADQVGWTYDYWGQGTQVTVSS,low polyreactivity
3,QVQLVESGGGLVQAGGSLRLSCAASGRIFGRNVMGWYRQAPGKERELVAAISWIGGSTSYADSVKGRFTISRDNAKNTVYLQMNSLKPEDTAVYYCAAKPYGYRHYWGYDYWGQGTQVTVSS,high polyreactivity
4,QDQLVESGGGLVQAGGSLRLSCAASGRTFSYNAMGWYRQAPRKERELVAAISYDGGRTYYADSVKGRFTISRDNAKNTFYLQMNSLKPEDTAVYYCAAYPYRGPHTWTIGDYWGQGTQVTVSS,low polyreactivity
5,QVQLVESGGGLVQAGGSLRLSCAASGYIFWENAMGWYRPAPGKERELVAAITVSGGGTYYADSVKGRFTISRDNAKNTVYLQRNSLKPEDTAVYYCAADEDNPWLWFYYWGQGTQVTVSS,low polyreactivity
6,QVQLVESGGGLVQAGGSLRLSCAASGSIFWPYAMGWYRQAPGKERELVAAISSSGTSTYYADSVKGRFTISRDNAKNTVYLQMNSLKPEDTAVYYCAKELFTYPYEYWGQGTQVTVSS,low polyreactivity
7,QVQLVESGGGLVQAGGSLRLSCAASGYTFTIYAMGWYRQAPGKERELVASISIDGSTYYADSVKGRFTISRDNAKNTVYLQMNSLKREDTAVYYCAADYYYYTPGFDYWGQGTQVTVSS,low polyreactivity
8,QVQLVESGGGLVQAGGSLRLSCAASGRIFYGNPMGWYRQAPGKERELVAAISSGGGSTYYADSVKGRFTISRDNAKNTVYLQMNSLKPEDTAVYYCAADPVHRFPGTGGYWGQGTQVTVSS,low polyreactivity
9,QVQLVESGGGLVQAGGSLRLSCAASGSIFPEYAMGWYIQAPGKERELVASISSGGSSTYYADSVKGRFTISRDNAKNTVYLQMNSLKPEDTAVYYCARRRSYKRRFDYWGQGTQVTVSS,low polyreactivity
10,QVQHLESRGGLVQAGGSLRLSCAASGSIFASNAMGWYRPAPGKEREFVAAITWRTDRTYYADSVKGRYTISRDIAKNTVYLQMNSLKPEDTAVYYCNAGRRVYYYSAYYGGGYWGQGTQVTVSS,high polyreactivity
11,QVQLVESGGGLVQAGGSLRLSCAASGFTFSYYAMGWYRQAPGKERELVAAITKRGGRTYYADSVKGRFTISRDNAKNTVYLQMNSLKPEDTAVYYCAVQARNAFYRPAFDYWGQGTQVTVSS,high polyreactivity
12,QVQLVESGGVLVQAGGSLRLSCAASGSIFEPYVMGWYRQPPGKERELVAAIRQSGGSTYYADSVKGRFTISRDNAKNTVYLQMNSLKPEDTAVYYCNAEQNPSGLYDYRGVEGEMGYWRQGTQVTVSS,low polyreactivity
13,QVQLVESGGGLVQAGGSLRLSCAASGSTFVYNAMGWYRQAPGKEREFVAVINWSGGRTYADSVKGRFTISRDNAKNTVYLQMISLKPEDTEVYYCIARRRTGYRPAMDYWGQGTEVTVSS,high polyreactivity
14,QVQLVESGGGLVQAGGSLRLSCAASGYTFHDYAMGWYRQAPGKERELVAAISKRGGSTYYADSVKGRFTISRDNAKNTVYLQMNSLKPEDTAVYYCAKGGPHRGTGLNDYWGQGTQVTVSS,high polyreactivity
15,QVQLVESGGGLVLAGGSLRLSCAASGFTFPHYAMGWYRQAPGKERELVAVISWSGSSTYYADSVKGRFTISRDNAKNTVYLQMNSLKPEDTAVYYCNTRKLYQVDYDYWGQGTQVTVSS,high polyreactivity
16,QEQLVESGGGLVQAGGSLRLSCAASGFIFPGYTMGWYRQAPGKERELVAAISRGSSTFYADSVKGRFTISRDNAKNTVYLQMNSLKPEDTAFYYCNTRVYAITLYDYWGQGTQVTVSS,low polyreactivity
17,QVQRVESGGGLVQAGGSLRLSSAGSGFTYYRNAMGWYRQAPGKERELVAAISFSGGSTYYADSVKGRFTISRDNAKNTVYLQMNSLKPEDTAVYYCAREDYSHSFLTYDYWGQGTQLTVSS,low polyreactivity
18,QVQLVESGGGLVQAGGSLRLSCAASGRIFGTYAMGWYRQAPGKERELFAAITLSDGSTYYADSVKGRFTISRDNAKNTVYLEMNTLKPEDTAVYYCAAVVDRFHPGLYEYWGQGTQVTVSS,low polyreactivity
19,QVQLVESGGGLVQAGGSLRLSCAASGSTFLINAMGWYRQAPGKERELVAAITGRGGSTYYADSVKGRFTISRDNAKNTVYLQMNSLKPEDTAVYYCNAERLGTGYRYDYWGQGTQVTVSS,high polyreactivity
20,QVQLVESGGGLVQAGGSLRLSCAPSGYTFWLYAMGWYRQAPGKERELVAAITWNGGSTYYADSVKGRFTISRDIAKNTVYLQMISLNPEYTAVYYCAAEAIIYLQWFDYWGQGTQVTVSS,low polyreactivity
21,QVQLVESGGGLVQAGGSLRLSCAASGSIFSDYAIGWYSTAPGKERELVASISWTGGGTYYADSVKGRFTISRDNAKNTVYLQMNSVKPEDTGFYYCAAEYSYIMDFWGQGTQVTVSS,high polyreactivity
